Source: US20210324054A1

Assays:
[1] = biological target: Antigen DN-IV-Ag# (Fapon Biotech Inc.) (dengue virus); test: indirect ELISA on coated DN-IV-Ag#, antibody diluted 9 times
[2] = biological target: Antigen DN-IV-Ag# (Fapon Biotech Inc.) (dengue virus); test: indirect ELISA on coated DN-IV-Ag#, antibody diluted 243 times
[3] = biological target: DN-IV quality control recombinant protein (produced by the company) (dengue virus); test: BLI, antibody on AMC sensor
[4] = biological target: Antigen DN-IV-Ag# (Fapon Biotech Inc.) (dengue virus); test: indirect ELISA on coated DN-IV-Ag#, antibody diluted 3 times
[5] = biological target: Antigen DN-IV-Ag# (Fapon Biotech Inc.) (dengue virus); test: indirect ELISA on coated DN-IV-Ag#, antibody initial
[6] = biological target: Antigen DN-IV-Ag# (Fapon Biotech Inc.) (dengue virus); test: indirect ELISA on coated DN-IV-Ag#, antibody diluted 27 times
[7] = biological target: Antigen DN-IV-Ag# (Fapon Biotech Inc.) (dengue virus); test: indirect ELISA on coated DN-IV-Ag#, antibody diluted 729 times
[8] = biological target: Antigen DN-IV-Ag# (Fapon Biotech Inc.) (dengue virus); test: indirect ELISA on coated DN-IV-Ag#, antibody diluted 81 times

| Binder | OD450 (reference 630 nm) [1] [OD] | OD450 (reference 630 nm) [2] [OD] | Kd [3] [nM] | koff [3] [s⁻¹] | kon [3] [M⁻¹ s⁻¹] | OD450 (reference 630 nm) [4] [OD] | OD450 (reference 630 nm) [5] [OD] | OD450 (reference 630 nm) [6] [OD] | OD450 (reference 630 nm) [7] [OD] | OD450 (reference 630 nm) [8] [OD] |
| --- | --- | --- | --- | --- | --- | --- | --- | --- | --- | --- |
| WT (recombinant anti-dengue virus NS1 7F8 antibody of Example 2) (antibody, mouse IgG1, kappa, V domains shown) VH: EVQLQQPGPELVKPGASVKMSCKASGYTVTSYVIHWVRQKPGQGLEWIGYMNAYNDGIKYNEKFIGKAILTSDKSSSTAYMQLSSLTSEDSAVYYCTKEGLFYVMDYWGQGTSVTVSS VL: QIVLTQSPAIMSASPGEKVTMTCSATSSISYMHWYQQKSGTSPKRWIYDTSKLASPVPVRFSGSGSGTSYSLTISSMEAEDAATYFCQYWRSDLPTFGAGTKLELKR | 0.781 | 0.2 | 3.15 | 0.000139 | 44200 | 1.18 | 1.42 | 0.398 | 0.211 | 0.24 |
| Mutation 1 (antibody, V domains shown) VH: EVQLQQPGPELVKPGASVKMSCKASGYTFTSTVIHWVRQKPGQGLEWIGYMNPYNDGLKYNEKFIGKAILTSDKSSSTAYMQLSSLTSEDSAVYYCTKEGLFYVMDYWGQGTSVTVSS VL: QIVLTQSPAIMSASPGEKVTMTCSATSSISYMHWYQQKSGTSPKRWIYDTSKLASGVPVRFSGSGSGTSYSLTISSMEAEDAATYFCQQWRSDLPTFGAGTKLELKR | 1.07 | 0.103 | 2.85 | 0.000126 | 44200 | 1.39 | 1.61 | 0.445 | 0.111 | 0.203 |
| Mutation 2 (antibody, V domains shown) VH: EVQLQQPGPELVKPGASVKMSCKASGYTFTSTVIHWVRQKPGQGLEWIGYMNGYNDGLKYNNKFIGKAILTSDKSSSTAYMQLSSLTSEDSAVYYCTKEGLFYVMDYWGQGTSVTVSS VL: QIVLTQSPAIMSASPGEKVTMTCSATSSISYMHWYQQKSGTSPKRWIYDTSKLASAVPVRFSGSGSGTSYSLTISSMEAEDAATYFCQQWRSDLPTFGAGTKLELKR | 1.05 | 0.11 | – | – | – | 1.48 | 1.59 | 0.578 | 0.157 | 0.216 |
| Mutation 3 (antibody, V domains shown) VH: EVQLQQPGPELVKPGASVKMSCKASGYTLTSTVIHWVRQKPGQGLEWIGYMNKYNDGLKYNPKFIGKAILTSDKSSSTAYMQLSSLTSEDSAVYYCTKEGLFYVMDYWGQGTSVTVSS VL: QIVLTQSPAIMSASPGEKVTMTCSVTSSISYMHWYQQKSGTSPKRWIYDTSKLASCVPVRFSGSGSGTSYSLTISSMEAEDAATYFCQQWRSQLPTFGAGTKLELKR | 0.062 | – | – | – | – | 0.347 | 0.923 | – | – | – |
| Mutation 1-13 (antibody, V domains shown) VH: EVQLQQPGPELVKPGASVKMSCKASGYTFTSSVIHWVRQKPGQGLEWIGYMNPYNDGLKYNEKFIGKAILTSDKSSSTAYMQLSSLTSEDSAVYYCTREGLFYVFDYWGQGTSVTVSS VL: QIVLTQSPAIMSASPGEKVTMTCSATSSLSYMHWYQQKSGTSPKRWIYDSSKLASGVPVRFSGSGSGTSYSLTISSMEAEDAATYFCQWWRSDLPTFGAGTKLELKR | – | – | 3.47 | 0.000151 | 43500 | – | – | – | – | – |
| Mutation 1-14 (antibody, V domains shown) VH: EVQLQQPGPELVKPGASVKMSCKASGYTFTSYVIHWVRQKPGQGLEWIGYMNPYNDGIKYNEKFIGKAILTSDKSSSTAYMQLSSLTSEDSAVYYCTKEGLFYVMDYWGQGTSVTVSS VL: QIVLTQSPAIMSASPGEKVTMTCSATSSVSYMHWYQQKSGTSPKRWIYDSSKLASGVPVRFSGSGSGTSYSLTISSMEAEDAATYFCQQWRSDLPTFGAGTKLELKR | – | – | 2.75 | 0.00012 | 43600 | – | – | – | – | – |
| Mutation 1-15 (antibody, V domains shown) VH: EVQLQQPGPELVKPGASVKMSCKASGYTFTSTVIHWVRQKPGQGLEWIGYMNPYNDGIKYNEKFIGKAILTSDKSSSTAYMQLSSLTSEDSAVYYCTKEGLFYVFDYWGQGTSVTVSS VL: QIVLTQSPAIMSASPGEKVTMTCSATSSISYMHWYQQKSGTSPKRWIYDSSKLASGVPVRFSGSGSGTSYSLTISSMEAEDAATYFCQYWRSDLPTFGAGTKLELKR | – | – | 3.79 | 0.00017 | 44800 | – | – | – | – | – |
| Mutation 1-16 (antibody, V domains shown) VH: EVQLQQPGPELVKPGASVKMSCKASGYTFTSSVIHWVRQKPGQGLEWIGYMNPYNDGLKYNEKFIGKAILTSDKSSSTAYMQLSSLTSEDSAVYYCTREGLFYVMDYWGQGTSVTVSS VL: QIVLTQSPAIMSASPGEKVTMTCSATSSLSYMHWYQQKSGTSPKRWIYDTSKLASGVPVRFSGSGSGTSYSLTISSMEAEDAATYFCQWWRSDLPTFGAGTKLELKR | – | – | 3.38 | 0.000124 | 36700 | – | – | – | – | – |
| Mutation 1-17 (antibody, V domains shown) VH: EVQLQQPGPELVKPGASVKMSCKASGYTFTSYVIHWVRQKPGQGLEWIGYMNPYNDGIKYNEKFIGKAILTSDKSSSTAYMQLSSLTSEDSAVYYCTKEGLFYVMDYWGQGTSVTVSS VL: QIVLTQSPAIMSASPGEKVTMTCSATSSVSYMHWYQQKSGTSPKRWIYDSSKLASGVPVRFSGSGSGTSYSLTISSMEAEDAATYFCQWWRSDLPTFGAGTKLELKR | – | – | 2.52 | 0.000114 | 45200 | – | – | – | – | – |
| Mutation 1-18 (antibody, V domains shown) VH: EVQLQQPGPELVKPGASVKMSCKASGYTFTSTVIHWVRQKPGQGLEWIGYMNPYNDGLKYNEKFIGKAILTSDKSSSTAYMQLSSLTSEDSAVYYCTKEGLFYVFDYWGQGTSVTVSS VL: QIVLTQSPAIMSASPGEKVTMTCSATSSLSYMHWYQQKSGTSPKRWIYDSSKLASGVPVRFSGSGSGTSYSLTISSMEAEDAATYFCQYWRSDLPTFGAGTKLELKR | – | – | 0.572 | 0.000243 | 425000 | – | – | – | – | – |
| Mutation 1-19 (antibody, V domains shown) VH: EVQLQQPGPELVKPGASVKMSCKASGYTFTSSVIHWVRQKPGQGLEWIGYMNPYNDGIKYNEKFIGKAILTSDKSSSTAYMQLSSLTSEDSAVYYCTREGLFYVMDYWGQGTSVTVSS VL: QIVLTQSPAIMSASPGEKVTMTCSATSSVSYMHWYQQKSGTSPKRWIYDTSKLASGVPVRFSGSGSGTSYSLTISSMEAEDAATYFCQQWRSDLPTFGAGTKLELKR | – | – | 2.41 | 0.000113 | 46800 | – | – | – | – | – |
| Mutation 1-20 (antibody, V domains shown) VH: EVQLQQPGPELVKPGASVKMSCKASGYTFTSYVIHWVRQKPGQGLEWIGYMNPYNDGLKYNEKFIGKAILTSDKSSSTAYMQLSSLTSEDSAVYYCTKEGLFYVFDYWGQGTSVTVSS VL: QIVLTQSPAIMSASPGEKVTMTCSATSSISYMHWYQQKSGTSPKRWIYDSSKLASGVPVRFSGSGSGTSYSLTISSMEAEDAATYFCQYWRSDLPTFGAGTKLELKR | – | – | 3.53 | 0.000161 | 45600 | – | – | – | – | – |
| Mutation 1-21 (antibody, V domains shown) VH: EVQLQQPGPELVKPGASVKMSCKASGYTFTSTVIHWVRQKPGQGLEWIGYMNPYNDGIKYNEKFIGKAILTSDKSSSTAYMQLSSLTSEDSAVYYCTREGLFYVMDYWGQGTSVTVSS VL: QIVLTQSPAIMSASPGEKVTMTCSATSSLSYMHWYQQKSGTSPKRWIYDTSKLASGVPVRFSGSGSGTSYSLTISSMEAEDAATYFCQWWRSDLPTFGAGTKLELKR | – | – | 0.693 | 0.000269 | 388000 | – | – | – | – | – |
| Mutation 1-22 (antibody, V domains shown) VH: EVQLQQPGPELVKPGASVKMSCKASGYTFTSSVIHWVRQKPGQGLEWIGYMNPYNDGLKYNEKFIGKAILTSDKSSSTAYMQLSSLTSEDSAVYYCTREGLFYVFDYWGQGTSVTVSS VL: QIVLTQSPAIMSASPGEKVTMTCSATSSVSYMHWYQQKSGTSPKRWIYDSSKLASGVPVRFSGSGSGTSYSLTISSMEAEDAATYFCQWWRSDLPTFGAGTKLELKR | – | – | 0.59 | 0.000245 | 415000 | – | – | – | – | – |
